# Results as given in patent CN115141270A (SHENZHEN KANGMAI BIOTECHNOLOGY CO LTD, dated 2022).
# B1: 抗体nCoV617 (anti-coronavirus spike glycoprotein human monoclonal antibody) (antibody, V domains shown)
# VH: QVQLVESGGGVVQPGRSLRLSCAASGFTFSSYAMHWVRQAPGKGLEWVALISYDGSNKYYADSVKGRFTISRDNSKNTLYLQMNSLRAEDTAVYYCARGLGLRFLEWPISSYWGQGTLVTVSS
# VL: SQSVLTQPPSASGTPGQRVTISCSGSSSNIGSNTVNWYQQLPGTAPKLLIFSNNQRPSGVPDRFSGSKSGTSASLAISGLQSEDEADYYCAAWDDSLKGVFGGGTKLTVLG
# notes: also called 抗S蛋白抗体; 抗冠状病毒刺突糖蛋白单克隆抗体
# What was measured:
# [1] = target: T1, SARS-CoV-2 S蛋白(ECD) (购自金斯瑞, Z03481) (SARS-CoV-2, UniProt P0DTC2 14-1213); test: ELISA, S protein (ECD) coated at 2 μg/ml, antibody titrated from 10 μg/mL
# T1 construct: extracellular domain
# [2] = target: T2, SARS-CoV-2 RBD结构域蛋白 (序列来自NC_045512.2, 自行表达) (SARS-CoV-2, UniProt P0DTC2 319-541); test: ELISA, RBD domain protein coated at 2 μg/ml, antibody titrated from 10 μg/mL
# T2 construct: domain: RBD
# [3] = target: T1, SARS-CoV-2 S蛋白(ECD) (购自金斯瑞, Z03481)
# [4] = target: SARS-CoV-2 (中国新型冠状病毒, MT226610) live virus, spike glycoprotein (SARS-CoV-2); test: cell-based or functional assay
binder,measurement,setting,value
B1,EC50,[1],2 ng/mL
same,EC50,[2],3 ng/mL
same,Kd,[3],8.02 nM
same,"IC50 (neutralisation of live virus on Vero E6 cells, cytopathic effect)",[4],2.3 ng/mL
